In patent US20240174746A1 (Alector, published 2024):
Residue numbers refer to the chain shown, from its start.

B1: TM-56 (antibody, V domains shown)
VH: QVHLQQSGAELAKPGASVKLSCKASGYTFTSYWMHWVKQRPGQGLEWIGYINPSSGYSKYNQRFKDKATLTADKSSTTAYMHLSSLTYADSAVYYCTREGGSISDWYFDVWGTGTTVTVSS
VL: DIEMTQAAPSVPVTPGESVSISCRSSKSLLQNNGNTYLYWFLQRPGQPPQLLIYRMSNLASGVPDRFSGSGSGTAFTLRISRVEAEDVGVYYCMQHLEYPYTFGGGTKLEIK
notes: Purified from mouse hybridoma
B2: TM-78 (antibody, V domains shown)
VH: QVQLQQPGAELVKPGASVKLSCKASGYTFTNHWMHWVRQRPGQGLEWIGNIDPSDSDTHYNHKFKDKATLIVDKSSSTAYLQLSSLTSEDSAVFYCARSRGGYYDYGEAMDYWGQGTSVTVSS
VL: B1 VL with E3V, A8T, V11I, Q31H, N32V, Y39F, P48S, Y101F, G105S
notes: Purified from mouse hybridoma
B3: TM-76 (antibody, V domains shown)
VH: QVTLKESGPGILQPSQTLSLTCSFSGFSLSTSGMGVSWIRKPSGKGLEWLAHIFWDDDKRYNLFLKSRLTVSKDTSSNQVFLMITSVDTTDTATYYCARMGRQRDYFDYWGQGTSLTVSS
VL: QIILTQSPAIMSASLGEEITLTCSASLSISYVHWYQQKSGASPKLLIYGTSNLASGVPSRFSGSGSGTFYSLTISSVEAEDAADYYCHQWSIYRTFGGGTKLEMK
notes: Purified from mouse hybridoma
B4: TM-85 (antibody, V domains shown)
VH: QVQLQQPGAELVRAGTSVKLSCKASGYTFIGYWMHWVKQRPGRGLEWIGRIDPYSGDTRYNEKFKNKATLTVDKPSSTAYMQLSSLTSEDSAVYYCARYGLGHAMDYWGQGTSVTVSS
VL: DIAMSQSQKFMSTSVGDRVSVTCKASQNVGTNVAWYQQKPGQSPKALIYSASYRYSGVPDRFTGSGSGTDFTLTISNVQSEDLAEYFCQQYNSYPLTFGAGTKLEMK
notes: Purified from mouse hybridoma
B5: TM-91 (antibody, V domains shown)
VH: DVQLQESGPGLVKPSQSLSLTCSVTGYSITSGYYWDWIRQFPGNKLEWMGYISYDGNNNYNPSLKNRISITRDTSKNQFFLKLNSVTTEDTATYYCARAVYSVGFAYWGQGTLVTVSS
VL: B4 VL with A3V, S5T, G30Y, A46P, A100G, M106I
notes: Purified from mouse hybridoma
B6: TM-80 (antibody, V domains shown)
VH: QVQLQQPGAELVKPGASVKLSCKASGYTFTTFWMHWVKQRPGQGLEWIGNIDPSDSETHYNQEFKDKATLTVDRSSNTAYMQLSSLTSEDSAVYYCARSSNWDNFDYWGQGTAVTVSS
VL: DIVMTQAAPSVPVTPGESVSISCRSSQSLLHVNGHTYLYWFLQRPGQSPQLLIYRMSNLASGVPDRFSGSGSGTVFTLRISRVETEDVGIYYCMQHLQYPFTFGSGTKLEIK
notes: Purified from mouse hybridoma
B7: TM-86 (antibody, V domains shown)
VH: EVQLQQSGPVLVKPGASVKMSCKASGYTFTDYYIHWVKQSHGRSLEWIGVISPYNDNTNYNQKFKGKATLTVDKSSSTAYMELNSLTSEDSAVYYCVRTYYSNYFDYWGQGTTLTVSS
VL: DIVMTQSPSSLSVSAGEKVTMSCKSSQSLLNSGNQKNYLAWHQQRPGQPPKLLIYGASTRESGVPDRFTGSGSGTEFTLTISSVQAEDLAVYYCQNDHSYPLTFGAGTKLELK
notes: Purified from mouse hybridoma
B8: TM-73 (antibody, V domains shown)
VH: QVQLQQPGAELVKPGASVKLSCKASGYTFTSHWMHWVKHRPGQGLEWIGEIDPSDSYTYYNQKFKGKATLTVDKSSSTVYMQLSSLTSEDSAVYYCARNYHGSGPPFAHWGQGTLVTVSS
VL: QIVLTQSPAIMSASPGEKVTLTCSASSGISYIYWYQQRPGSSPRLLIYDTSNLASGVPVRFSGSGSETSYSLTISRLEAEDAATYYCHQWRSYPPTFGGGTKLEIR
notes: Purified from mouse hybridoma
B9: TM-94 (antibody, V domains shown)
VH: EVQLQQSGPELVKPGASVKIPCKASGYTFTDYNMDWVKQSHGKSLEWIGDINPYNGGTLYNQKFKGKATLTVDKSSNTAYMEIRSLTYEDTAVYYCARVGYHGTPDYWGQGTTVTVSS
VL: DVVMTQTPLSLPVSLGDQASISCRSSQSLVYSNGNTYLHWYLQRPGQSPKLLIYKVSNRFSGVPDRFSGSGSGTDFTLKISRVEAEDLGVYFCSQSTHVYTFGGGTKLEIK
notes: Purified from mouse hybridoma
B10: TM-84 (antibody, V domains shown)
VH: QVQLQQSGAELVKPGASVKMSCKASGYTFTTFPIEWMKQNHGKSLEWIGNFHPYNDDTKYNEKFKGKATLTVEKSSSTVYLELSRLTSDDSAVYYCARYFYGGMDYWGQGTSVTVSS
VL: DIQMTQSPASLSVSVGETVTITCRASENIYSSLGWYHQKQGKSPQLLVFAATNLADGVPSRFSGSGSGTQYSLKINSLQSEDFGTYYCQHLWSVPWTFGGGTKLEIK
notes: Purified from mouse hybridoma
B11: TM-93 (antibody, V domains shown)
VH: QVQLKESGPGLVAPSQSLSITCTVSGFSLSSYGISWVRQPPGKGLEWLGVIWTGGGTNYNSALESRLSITKDNSKSQVFLKMNSLQTDDTARYYCARNPPKIFYDYLMYFDYWGQGTTVTVSS
VL: DIVMTQSHKLMSTSVGDRVSITCKASQDVGSAVAWYQQKPGQSPQLLIYWSSTRLPGVPDRFTGSGSGTDFTLTISNVQSEVLADYFCQQYTSYPLTFGGGTKLEIK
notes: Purified from mouse hybridoma
B12: TM-87 (antibody, V domains shown)
VH: EVQLQQSGPVLVKPGASVKLSCKASGYTFTDYYMNWVKQSHGKSLEWIGVINPYNGATSYNQKFQDKATLTVDKSSSTAYMGLNSLTSEDSAVYYCANGNYDWYFDVWGTGTTVTVSS
VL: DVQITQSPSYLAASPGETITINCRASRSISKYLAWYQEKPGKTNKLLIYSGSTLQSGIPSRFSGSGSGTDFTLTISSLEPEDFAVYYCQQHNEYPLTFGAGTKLELK
notes: Purified from mouse hybridoma
B13: TM-92 (antibody, V domains shown)
VH: EVQLQQSGPELVKPGASVKIPCKASGYTFTDYTMDWVKQSPGKSLEWIGHINPNDGGTFYNQKFKGKATLTVDKSSSTAYMELRSLTSEDSAVYYCARWVYYYGISYEGGAMDYWGQGTSVTVSS
VL: B12 VL with R27K, V85M, L96W, A100G, L106I
notes: Purified from mouse hybridoma
B14: TM-88 (antibody, V domains shown)
VH: EAQLQQSGPVLVKPGASVKMSCKTSGYTFTDYYINWVKQSHGKSLEWIGVINPYSGATYYTQKFKGKATLTVDKSSSTAYMELNSQTSEDSAVYYCARGGYDYGHWYFDVWGTGTTVTVSS
VL: ETTVTQSPASLSMAIGEKVTIRCITSSDIDDHMNWYRQKPGEPPEFLISEGNALRPGVPSRFSSSGYGTDFIFTIENILSEDVADYYCLQSDNLPLTFGAGTKLELK
notes: Purified from mouse hybridoma

molecular target: T1, cynomolgus (cyno) TMEM106B (cynomolgus, UniProt Q9NUM4 2-274 (human entry)); test: flow cytometry, HEK293 cells transiently transfected with cyno TMEM106B
T1 construct: Full-length cDNA transiently transfected into HEK293 cells
Method: (§1) For screening of the hybridoma cell culture supernatants, humanTMEM106B-transfected HEK293 cells were aliquoted in 96-well round bottom plates (2×10⁵ cells per well) and incubated with 50 μL of hybridoma cell culture supernatant on ice for 30 minutes. […] Cell sorting was performed on a FACS Canto system (BD Biosciences) or iQue (Intellicyt), with sort gates drawn to exclude dead (i.e., propidium iodide-positive) cells. Median fluorescence intensity (MFI) of anti-mouse-APC MFI on TMEM106B+ HEK293 cells was calculated for each clone, and those displaying a signal of at least 2-fold over background compared to a secondary-antibody only well were taken forward for further analysis and characterization.

Compared with B1, B2 is higher in “fold-change in binding over parental HEK293 cells” value (“fold-change in binding” for short): 4.49 fold for the first, 6.88 fold for the second.

Going from B3 to B4, the “fold-change in binding” value falls from 4.35 fold to 0.18 fold.

Compared with B5, B6 is higher in “fold-change in binding” value: 2.45 fold for the first, 4.33 fold for the second.

Compared with B7, B8 is lower in “fold-change in binding” value: 5.81 fold for the first, 1.15 fold for the second.

Going from B9 to B10, the “fold-change in binding” value rises from 6.1 fold to 8.43 fold.

Compared with B11, B12 is lower in “fold-change in binding” value: 9.21 fold for the first, 7.21 fold for the second.

Going from B13 to B14, the “fold-change in binding” value rises from 5.7 fold to 7.57 fold.

molecular target: T2, human TMEM106B (human, UniProt Q9NUM4 2-274); test: flow cytometry, HEK293 cells transiently transfected with human TMEM106B
T2 construct: Full-length cDNA transiently transfected into HEK293 cells; also called huTMEM106B
Method: as §1

Compared with B1, B2 is higher in “fold-change in binding” value: 9.35 fold for the first, 9.6 fold for the second.

First: B3
Second: B4
The “fold-change in binding” value of the first is higher: 6.52 fold for the first, 0.26 fold for the second.

Going from B5 to B6, the “fold-change in binding” value rises from 5.22 fold to 9.21 fold.

Compared with B7, B8 is lower in “fold-change in binding” value: 9.73 fold for the first, 2.57 fold for the second.

First: B9
Second: B10
The “fold-change in binding” value of the first is lower: 3.79 fold for the first, 17.1 fold for the second.

Going from B11 to B12, the “fold-change in binding” value rises from 11.5 fold to 12.8 fold.

Going from B13 to B14, the “fold-change in binding” value falls from 9.14 fold to 7.81 fold.

molecular target: T3, mouse TMEM106B (mouse, UniProt Q80X71 2-275); test: flow cytometry, HEK293 cells transiently transfected with murine TMEM106B
T3 construct: Full-length cDNA transiently transfected into HEK293 cells; also called muTMEM106B; murine TMEM106B
Method: as §1

First: B1
Second: B2
The “fold-change in binding” value of the first is lower: 0.47 fold for the first, 0.99 fold for the second.

First: B3
Second: B4
The “fold-change in binding” value of the first is higher: 0.7 fold for the first, 0.19 fold for the second.

Going from B5 to B6, the “fold-change in binding” value falls from 2.41 fold to 0.39 fold.

Compared with B7, B8 is lower in “fold-change in binding” value: 5.78 fold for the first, 0.59 fold for the second.

First: B9
Second: B10
The “fold-change in binding” value of the first is lower: 2.35 fold for the first, 9.62 fold for the second.

Compared with B11, B12 is higher in “fold-change in binding” value: 8.83 fold for the first, 27 fold for the second.

First: B13
Second: B14
The “fold-change in binding” value of the first is lower: 5.15 fold for the first, 5.84 fold for the second.
